From paper PMC8220723 come the findings set out here.

Data set [1] deals with FuTraP-hASCT2-d17, human ASCT2 with a deletion of 17 amino acids of region C, fused to AcGFP (human) (UniProt Q15758).
Data set [2] shares this target. The source holds these as a separate data set.
The target of data set [3] is wild-type human ASCT2 fused to AcGFP (FuTraP-hASCT2-wt) (human) (UniProt Q15758).
A short description of data set [4]: flow cytometry, AcGFP MFI normalised to iRFP713 MFI. To be noted: glycan lost; control: wild type (FuTraP-hASCT2-wt).
Data set [5] in a line: confocal microscopy, AcGFP with membrane dye. Conditions: glycan lost; control: wild type (FuTraP-hASCT2-wt).
Data set [6] in a line: infection, dsRed-positive cells by flow cytometry. To be noted: glycan lost; control: wild type (FuTraP-hASCT2-wt). In general terms: Flow cytometry measures light scatter and fluorescence of single cells or particles in a stream.

In turn, “Syncytin-1 envelope glycoprotein of the chimeric virus MCAS(Sync1-MSC16)dsRed (cytoplasmic tail shortened to 16 amino acids) (from UniProt Q9UQF0 21-538) (natural protein)” gave an infection of DF-1/LgBiT cells expressing the FuTraP variant by MCAS(Sync1-MSC16)dsRed, dsRed-positive cells by flow cytometry (reduced sensitivity compared to the wild type) in data set [1] of 1.7%. The spinoculation of cells expressing the FuTraP variant with MCAS(Sync1-MSC16)dsRed, infected (dsRed-positive) cells by flow cytometry is 21% in data set [2] and 56% in data set [3].

B1: ASCT2: N212Q (protein)
parent chain: MVADPPRDSKGLAAAEPTANGGLALASIEDQGAAAGGYCGSRDQVRRCLRANLLVLLTVVAVVAGVALGLGVSGAGGALALGPERLSAFVFPGELLLRLLRMIILPLVVCSLIGGAASLDPGALGRLGAWALLFFLVTTLLASALGVGLALALQPGAASAAINASVGAAGSAENAPSKEVLDSFLDLARNIFPSNLVSAAFRSYSTTYEERNITGTRVKVPVGQEVEGMNILGLVVFAIVFGVALRKLGPEGELLIRFFNSFNEATMVLVSWIMWYAPVGIMFLVAGKIVEMEDVGLLFARLGKYILCCLLGHAIHGLLVLPLIYFLFTRKNPYRFLWGIVTPLATAFGTSSSSATLPLMMKCVEENNGVAKHISRFILPIGATVNMDGAALFQCVAAVFIAQLSQQSLDFVKIITILVTATASSVGAAGIPAGGVLTLAIILEAVNLPVDHISLILAVDWLVDRSCTVLNVEGDALGAGLLQNYVDRTESRSTEPELIQVKSELPLDPLPVPTEEGNPLLKHYRGPAGDATVASEKESVM
As to B1, the “expression_or_secretion, percent_of_wt” value in data set [4] is listed as “decreases”. In data set [5], the localisation_or_trafficking result is “no change”. The “other: receptor-mediated sensitivity to viral infection” value in data set [6] was “no change”.
